Data from patent publication US20240400715A1 (VIBRANT PHARMA, published 2024).
Several values for one entry are separate records, joined by “and”; a condition that tells them apart may be missing. Equal entries are not always repeated.

B1: Fab (Heavy)-Knob+Fab (Light)-Hole-CEA (208) (bispecific antibody, human IgG4 S228P, kappa, F234A L235A)
heavy: EVKLLESGGGLVQPKGSLKLSCAASGFTFNTYAMNWVRQAPGKGLEWVARIRSKYNNYATYYADSVKDRFTISRDDSQSILYLQMNNLKTEDTAMYYCVRHGNFGNSYVSWFAYWGQGTLVTVSSASTKGPSVFPLAPCSRSTSESTAALGCLVKDYFPEPVTVSWNSGALTSGVHTFPAVLQSSGLYSLSSVVTVPSSSLGTKTYTCNVDHKPSNTKVDKRVESKYGPPCPPCPAPEAAGGPSVFLFPPKPKDTLMISRTPEVTCVVVDVSQEDPEVQFNWYVDGVEVHNAKTKPREEQFNSTYRVVSVLTVLHQDWLNGKEYKCKVSNKGLPSSIEKTISKAKGQPREPQVYTLPPCQEEMTKNQVSLWCLVKGFYPSDIAVEWESNGQPENNYKTTPPVLDSDGSFFLYSRLTVDKSRWQEGNVFSCSVMHEALHNHYTQKSLSLSL
chain: QAVVTQESALTTSPGETVTLTCRSSTGAVTTSNYANWVQEKPDHLFTGLIGGTNKRAPGVPARFSGSLIGDKAALTITGAQTEDEAIYFCALWYSNLWVFGGGTKVEIKRTVAAPSVFIFPPSDEQLKSGTASVVCLLNNFYPREAKVQWKVDNALQSGNSQESVTEQDSKDSTYSLSSTLTLSKADYEKHKVYACEVTHQGLSSPVTKSFNRGECESKYGPPCPPCPAPEAAGGPSVFLFPPKPKDTLMISRTPEVTCVVVDVSQEDPEVQFNWYVDGVEVHNAKTKPREEQFNSTYRVVSVLTVLHQDWLNGKEYKCKVSNKGLPSSIEKTISKAKGQPREPQVCTLPPSQEEMTKNQVSLSCAVKGFYPSDIAVEWESNGQPENNYKTTPPVLDSDGSFFLVSRLTVDKSRWQEGNVFSCSVMHEALHNRFTQKSLSLSLGGGGSGGGGSEVQLVESGGGFVQAGESLTLSCTSSTLTFTPYRMAWYRQAPGKQRDLVADISSGDGRTTNYADFAKGRFTISRDNIKNTVFLRMTNLKPEDTAVYYCNTFVSFVGIARSWGQGTQVTVSS
notes: Two-chain format; human IgG4 knob-into-hole Fc
B2: CEA-Knob-Fab-+Hole (107) (bispecific antibody, human IgG4 S228P, kappa, F234A L235A)
heavy: EVQLVESGGGFVQAGESLTLSCTSSTLTFTPYRMAWYRQAPGKQRDLVADISSGDGRTTNYADFAKGRFTISRDNIKNTVFLRMTNLKPEDTAVYYCNTFVSFVGIARSWGQGTQVTVSSESKYGPPCPPCPAPEAAGGPSVFLFPPKPKDTLMISRTPEVTCVVVDVSQEDPEVQFNWYVDGVEVHNAKTKPREEQFNSTYRVVSVLTVLHQDWLNGKEYKCKVSNKGLPSSIEKTISKAKGQPREPQVYTLPPCQEEMTKNQVSLWCLVKGFYPSDIAVEWESNGQPENNYKTTPPVLDSDGSFFLYSRLTVDKSRWQEGNVFSCSVMHEALHNHYTQKSLSLSLGGGGSGGGGEVKLLESGGGLVQPKGSLKLSCAASGFTFNTYAMNWVRQAPGKGLEWVARIRSKYNNYATYYADSVKDRFTISRDDSQSILYLQMNNLKTEDTAMYYCVRHGNFGNSYVSWFAYWGQGTLVTVSSASTKGPSVFPLAPCSRSTSESTAALGCLVKDYFPEPVTVSWNSGALTSGVHTFPAVLQSSGLYSLSSVVTVPSSSLGTKTYTCNVDHKPSNTKVDKRV
chain: ESKYGPPCPPCPAPEAAGGPSVFLFPPKPKDTLMISRTPEVTCVVVDVSQEDPEVQFNWYVDGVEVHNAKTKPREEQFNSTYRVVSVLTVLHQDWLNGKEYKCKVSNKGLPSSIEKTISKAKGQPREPQVCTLPPSQEEMTKNQVSLSCAVKGFYPSDIAVEWESNGQPENNYKTTPPVLDSDGSFFLVSRLTVDKSRWQEGNVFSCSVMHEALHNRFTQKSLSLSL
light: QAVVTQESALTTSPGETVTLTCRSSTGAVTTSNYANWVQEKPDHLFTGLIGGTNKRAPGVPARFSGSLIGDKAALTITGAQTEDEAIYFCALWYSNLWVFGGGTKVEIKRTVAAPSVFIFPPSDEQLKSGTASVVCLLNNFYPREAKVQWKVDNALQSGNSQESVTEQDSKDSTYSLSSTLTLSKADYEKHKVYACEVTHQGLSSPVTKSFNRGEC
notes: Anti-CD3 TA1 Fab + anti-CEA VHH C17 on human IgG4 knob-into-hole Fc

What was measured:
[1] = target: T1, human CD3 on Jurkat cells (human, UniProt P07766 23-207; P04234 22-171; P09693 23-182); assay: FACS, Jurkat cells;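 also: flow cytometric binding of bispecific antibodies to Jurkat T cells, threefold serial dilutions incubated half an hour in the cold, EC50 taken from the fitted binding curve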
T1 construct: whole, on cells; CD3 complex as on Jurkat (Clone E6-1) cells; also called CD3 expressing cells (Jurkat)

[2] = target: T2, human CD3ε/δ (ACRO systems, CDD-H52W1) (human, UniProt P07766 23-126; P04234 22-105); assay: BLI, antibody captured, antigen in solution;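 also: bispecific antibodies captured on AHIC biosensors to a 1.5 nm loading signal, in PBST with 0.02% detergent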
T2 construct: Bought protein; also called human CD3ϵ/CD3δ; human CD3 epsilon/delta antigen
Procedure: The bispecific antibodies were diluted to 5 ag/ml, and 1.5 nm protein was coupled to the surface of the AHIC sensor chip through 0.02% PBST.

Row | Binder | EC50 [1] | Kd [2] [nM] | koff [2] [s⁻¹] | kon [2] [M⁻¹ s⁻¹]
1 | B1 | 0.917 µg/mL and 7.06 nM | 2.82 | 0.000642 | 228000
2 | B2 | 2.8 µg/mL and 21.6 nM | 2.23 | 0.000803 | 360000
